In the data set the test system is Escherichia coli TOP10. The data set is described as follows: shrunken log2 fold change of peptide-encoding DNA abundance (4.5 h post-induction vs induction); higher = less antimicrobial activity (less host growth inhibition). The following applies: time post-induction: 4.5 h; library: site-saturation at positions 5, 18, 19, 20.

We go through 50 sequences from the supplement of paper PMC9112550, “Optimization of the antimicrobial peptide Bac7 by deep mutational scanning” (BMC Biology, 2022).
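Note: peptides expressed intracellularly from a pBAD plasmid library in pooled LB shake-flask culture, induced with 0.3% L-arabinose, DNA abundance read by NGS, three biological replicates, DESeq2 with apeglm shrinkage.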

With RRIRTRPPRLPRPRPRPMYLPRP, the “shrunken log2 fold change” value is -0.518.
For RRIRVRPPRLPRPRPRPFCSPRP, the “shrunken log2 fold change” value came out at 0.0261.
As for RRIRGRPPRLPRPRPRPTVTPRP, the figure is 1.34; as for RRIRQRPPRLPRPRPRPFWMPRP, 0.00494.
Next, RRIRHRPPRLPRPRPRPIEMPRP: -0.00281; RRIRPRPPRLPRPRPRPHVWPRP: 0.51.
Next, RRIRNRPPRLPRPRPRPDEHPRP: -0.415; RRIRARPPRLPRPRPRPGVMPRP: 0.437; RRIRLRPPRLPRPRPRPMWAPRP: 0.0661.
On to RRIRERPPRLPRPRPRPDCIPRP, for which the “shrunken log2 fold change” value worked out at 0.0113.
Take RRIRARPPRLPRPRPRPTMQPRP: the “shrunken log2 fold change” value was found to be 0.418.
Turning to RRIRFRPPRLPRPRPRPCTSPRP, the “shrunken log2 fold change” value is -0.0377.
RRIRSRPPRLPRPRPRPIWLPRP: the “shrunken log2 fold change” value was 0.222.
As for RRIRMRPPRLPRPRPRPGSTPRP, the figure is 0.292; as for RRIRMRPPRLPRPRPRPFNIPRP, -0.3; as for RRIRGRPPRLPRPRPRPFEVPRP, 0.121.
For the sequence RRIRHRPPRLPRPRPRPAGPPRP, the “shrunken log2 fold change” value came out at 0.056.
As for RRIRIRPPRLPRPRPRPNPNPRP, the figure is -0.556.
For RRIRMRPPRLPRPRPRPGWEPRP, the “shrunken log2 fold change” value was 0.888.
RRIRGRPPRLPRPRPRPDPGPRP: the “shrunken log2 fold change” value was found to be 0.616.
Next, RRIRCRPPRLPRPRPRPMSVPRP: -0.0655; RRIRLRPPRLPRPRPRPSVRPRP: 0.0468; RRIRQRPPRLPRPRPRPSMLPRP: -0.522.
As for RRIRIRPPRLPRPRPRPLWQPRP, the figure is 0.0858; as for RRIRYRPPRLPRPRPRPYPMPRP, -0.744; as for RRIRYRPPRLPRPRPRPNYWPRP, -0.698.
For the sequence RRIRKRPPRLPRPRPRPMELPRP, the “shrunken log2 fold change” value was 0.159.
Next, RRIRLRPPRLPRPRPRPAMVPRP: 0.0527; RRIRKRPPRLPRPRPRPQPNPRP: 0.159; RRIRKRPPRLPRPRPRPPYSPRP: -0.433.
With RRIRERPPRLPRPRPRPAGVPRP, the “shrunken log2 fold change” value came to 0.157.
Next, RRIRRRPPRLPRPRPRPRCHPRP: 0.127.
Next, RRIRIRPPRLPRPRPRPAYWPRP: -0.0439.
RRIRYRPPRLPRPRPRPLASPRP: the “shrunken log2 fold change” value was -0.556.
Next, RRIRRRPPRLPRPRPRPSTMPRP: -0.467; RRIRERPPRLPRPRPRPHHRPRP: -0.145; RRIRDRPPRLPRPRPRPARWPRP: 0.824.
As for RRIRERPPRLPRPRPRPHEEPRP, the figure is 0.13; as for RRIRGRPPRLPRPRPRPVVVPRP, 0.985.
Next, RRIRTRPPRLPRPRPRPKRNPRP: 0.366; RRIRRRPPRLPRPRPRPNDEPRP: -0.0407; RRIRRRPPRLPRPRPRPQKVPRP: 0.234.
Consider RRIRCRPPRLPRPRPRPMQTPRP, for which the “shrunken log2 fold change” value came to 1.52.
Turning to RRIRPRPPRLPRPRPRPEVSPRP, the “shrunken log2 fold change” value worked out at 0.0949.
As for RRIRPRPPRLPRPRPRPHISPRP, the figure is -0.422; as for RRIRFRPPRLPRPRPRPYCGPRP, -0.306; as for RRIRMRPPRLPRPRPRPIYDPRP, -0.265.
Regarding RRIRLRPPRLPRPRPRPALFPRP, the “shrunken log2 fold change” value was 0.488.
On to RRIRMRPPRLPRPRPRPIDTPRP, for which the “shrunken log2 fold change” value stood at 0.0143.
As to RRIRRRPPRLPRPRPRPWNEPRP, the “shrunken log2 fold change” value is -0.208.
